Test results from IntAct's records for PubMed 29892012.

Key:
cirbp_human CIRBP = cirbp_human CIRBP (UniProt Q14011)
pex39_human PEX39 = pex39_human PEX39 (UniProt Q5I0X4)
rbm7_human RBM7 = rbm7_human RBM7 (UniProt Q9Y580)
rbm42_human RBM42 = rbm42_human RBM42 (UniProt Q9BTD8)
tyk2_human TYK2 = tyk2_human TYK2 (UniProt P29597)
grap2_human GRAP2 = grap2_human GRAP2 (UniProt O75791)
hnrll_human HNRNPLL = hnrll_human HNRNPLL (UniProt Q8WVV9)
U2AF1 = U2AF1 (UniProt Q01081)
prr3_human PRR3 = prr3_human PRR3 (UniProt P79522)
ytdc1_human YTHDC1 = ytdc1_human YTHDC1 (UniProt Q96MU7)
qki_human QKI = qki_human QKI (UniProt Q96PU8)
abi2_human ABI2 = abi2_human ABI2 (UniProt Q9NYB9)
ZNF385C = ZNF385C (UniProt Q66K41)
kr108_human KRTAP10-8 [1] = molecular target: kr108_human KRTAP10-8 (UniProt P60410)
kr108_human KRTAP10-8 [2] = molecular target: kr108_human KRTAP10-8 (UniProt P60410); remark: listed apart in the source
cep76_human CEP76 = cep76_human CEP76 (UniProt Q8TAP6)
itf2_human TCF4 [3] = molecular target: itf2_human TCF4 (UniProt P15884)
inca1_human INCA1 [4] = molecular target: inca1_human INCA1 (UniProt Q0VD86)
dpyl3_human DPYSL3 = dpyl3_human DPYSL3 (UniProt Q14195)
gors2_human GORASP2 = gors2_human GORASP2 (UniProt Q9H8Y8)
dpyl5_human DPYSL5 = molecular target: T1, dpyl5_human DPYSL5 (UniProt Q9BPU6)
T1 sequence: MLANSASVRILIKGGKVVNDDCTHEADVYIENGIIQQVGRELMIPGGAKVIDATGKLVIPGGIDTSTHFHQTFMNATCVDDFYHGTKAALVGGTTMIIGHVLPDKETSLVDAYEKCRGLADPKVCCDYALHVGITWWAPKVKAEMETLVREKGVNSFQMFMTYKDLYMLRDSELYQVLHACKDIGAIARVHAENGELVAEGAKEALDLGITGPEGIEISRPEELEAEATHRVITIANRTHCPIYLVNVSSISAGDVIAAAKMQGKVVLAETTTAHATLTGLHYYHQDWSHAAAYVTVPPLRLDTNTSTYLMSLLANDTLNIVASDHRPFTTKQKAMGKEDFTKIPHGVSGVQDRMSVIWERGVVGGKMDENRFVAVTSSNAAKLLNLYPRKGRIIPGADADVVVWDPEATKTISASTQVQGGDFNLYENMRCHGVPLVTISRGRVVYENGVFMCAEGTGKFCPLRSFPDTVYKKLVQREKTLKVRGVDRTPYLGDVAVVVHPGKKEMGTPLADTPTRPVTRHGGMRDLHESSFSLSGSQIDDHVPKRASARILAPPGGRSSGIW

kr101_human KRTAP10-1 = kr101_human KRTAP10-1 (UniProt P60331)
kr105_human KRTAP10-5 = kr105_human KRTAP10-5 (UniProt P60370)
mdfi_human MDFI = mdfi_human MDFI (UniProt Q99750)
kr103_human KRTAP10-3 = kr103_human KRTAP10-3 (UniProt P60369)
aagab_human AAGAB = aagab_human AAGAB (UniProt Q6PD74)
stat3_human STAT3 = stat3_human STAT3 (UniProt P40763)
efs_human EFS = efs_human EFS (UniProt O43281)
aakb2_human PRKAB2 = aakb2_human PRKAB2 (UniProt O43741)
zbt24_human ZBTB24 = zbt24_human ZBTB24 (UniProt O43167)
dpyl2_human DPYSL2 = dpyl2_human DPYSL2 (UniProt Q16555)
erep1_human ENTREP1 = erep1_human ENTREP1 (UniProt Q15884)
hnrl1_human HNRNPUL1 = hnrl1_human HNRNPUL1 (UniProt Q9BUJ2)
leg9b_human LGALS9B = leg9b_human LGALS9B (UniProt Q3B8N2)
fxl18_human FBXL18 = fxl18_human FBXL18 (UniProt Q96ME1)
pdli7_human PDLIM7 = pdli7_human PDLIM7 (UniProt Q9NR12)
ntaq1_human NTAQ1 = ntaq1_human NTAQ1 (UniProt Q96HA8)
dest_human DSTN = molecular target: T2, dest_human DSTN (UniProt P60981)
T2 sequence: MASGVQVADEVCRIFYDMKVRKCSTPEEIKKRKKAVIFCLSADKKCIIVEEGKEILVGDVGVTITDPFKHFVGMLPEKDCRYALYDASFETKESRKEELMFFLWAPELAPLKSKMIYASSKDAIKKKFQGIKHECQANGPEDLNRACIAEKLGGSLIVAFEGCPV

neca2_human NECAB2 = neca2_human NECAB2 (UniProt Q7Z6G3)
inca1_human INCA1 [5] = molecular target: inca1_human INCA1 (UniProt Q0VD86); remark: listed apart in the source
taso2_human TASOR2 = taso2_human TASOR2 (UniProt Q5VWN6)
itf2_human TCF4 [6] = molecular target: itf2_human TCF4 (UniProt P15884); remark: listed apart in the source
ikzf3_human IKZF3 = ikzf3_human IKZF3 (UniProt Q9UKT9)
tri23_human TRIM23 = tri23_human TRIM23 (UniProt P36406)
ctsr1_human CATSPER1 = ctsr1_human CATSPER1 (UniProt Q8NEC5)
creb3_human CREB3 = creb3_human CREB3 (UniProt O43889)
zn446_human ZNF446 = zn446_human ZNF446 (UniProt Q9NWS9)

Sequence of Serine/threonine-protein kinase Nek6 (Homo sapiens), Q9HC98 R195C (Q9HC98 whole entry R195C): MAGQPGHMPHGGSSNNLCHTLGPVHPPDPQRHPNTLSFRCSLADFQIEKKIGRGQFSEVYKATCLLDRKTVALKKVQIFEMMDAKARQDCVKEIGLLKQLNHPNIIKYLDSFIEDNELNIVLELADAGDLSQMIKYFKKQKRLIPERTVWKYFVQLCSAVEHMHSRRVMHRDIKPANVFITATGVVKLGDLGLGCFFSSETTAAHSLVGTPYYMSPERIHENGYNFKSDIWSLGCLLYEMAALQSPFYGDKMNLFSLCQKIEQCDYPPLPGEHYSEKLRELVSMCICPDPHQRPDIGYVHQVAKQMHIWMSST
Sequence of Zinc finger protein 559 (Homo sapiens), Q9BR84 K62I (Q9BR84 whole entry K62I): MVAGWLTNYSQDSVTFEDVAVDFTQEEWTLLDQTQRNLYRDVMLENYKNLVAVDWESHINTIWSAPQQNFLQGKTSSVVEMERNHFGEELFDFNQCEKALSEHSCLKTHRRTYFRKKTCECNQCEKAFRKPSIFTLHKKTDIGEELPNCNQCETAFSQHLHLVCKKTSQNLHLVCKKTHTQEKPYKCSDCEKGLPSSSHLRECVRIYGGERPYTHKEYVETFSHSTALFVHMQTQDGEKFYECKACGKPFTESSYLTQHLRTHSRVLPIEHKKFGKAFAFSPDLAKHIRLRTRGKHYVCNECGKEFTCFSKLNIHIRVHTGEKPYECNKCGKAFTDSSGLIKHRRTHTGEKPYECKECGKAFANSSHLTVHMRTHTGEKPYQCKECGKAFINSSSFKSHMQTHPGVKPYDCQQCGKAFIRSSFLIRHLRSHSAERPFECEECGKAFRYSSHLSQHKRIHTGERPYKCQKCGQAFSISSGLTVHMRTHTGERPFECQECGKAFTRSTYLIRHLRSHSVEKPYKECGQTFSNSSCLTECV
Sequence of inca1_human INCA1 (Q0VD86 whole entry): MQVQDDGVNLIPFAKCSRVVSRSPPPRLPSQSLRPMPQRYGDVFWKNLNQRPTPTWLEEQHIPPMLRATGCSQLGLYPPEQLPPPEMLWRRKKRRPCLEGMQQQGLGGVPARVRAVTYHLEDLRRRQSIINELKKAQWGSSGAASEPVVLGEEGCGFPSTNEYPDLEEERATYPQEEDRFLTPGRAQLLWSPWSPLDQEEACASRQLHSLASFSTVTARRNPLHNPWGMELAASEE
Sequence of itf2_human TCF4 (P15884 whole entry): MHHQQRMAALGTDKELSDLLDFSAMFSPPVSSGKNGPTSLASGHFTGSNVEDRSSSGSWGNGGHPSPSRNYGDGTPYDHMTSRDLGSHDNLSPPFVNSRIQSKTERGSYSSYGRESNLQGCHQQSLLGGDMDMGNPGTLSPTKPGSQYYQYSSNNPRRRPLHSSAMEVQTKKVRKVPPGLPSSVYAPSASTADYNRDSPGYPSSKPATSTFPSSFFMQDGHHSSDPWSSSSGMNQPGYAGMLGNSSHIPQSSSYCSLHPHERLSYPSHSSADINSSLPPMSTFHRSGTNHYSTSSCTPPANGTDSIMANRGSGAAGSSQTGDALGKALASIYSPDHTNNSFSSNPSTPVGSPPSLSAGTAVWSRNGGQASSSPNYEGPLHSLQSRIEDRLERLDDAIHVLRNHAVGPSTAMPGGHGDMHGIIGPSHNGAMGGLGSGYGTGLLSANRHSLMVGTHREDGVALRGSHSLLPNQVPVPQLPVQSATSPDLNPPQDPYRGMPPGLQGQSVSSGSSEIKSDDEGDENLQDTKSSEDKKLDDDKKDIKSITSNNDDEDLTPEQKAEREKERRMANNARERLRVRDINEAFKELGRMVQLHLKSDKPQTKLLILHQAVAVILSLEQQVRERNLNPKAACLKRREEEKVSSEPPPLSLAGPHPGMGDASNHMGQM
Sequence of Tyrosine-protein kinase Blk (Homo sapiens), P51451 I338T (P51451 whole entry I338T): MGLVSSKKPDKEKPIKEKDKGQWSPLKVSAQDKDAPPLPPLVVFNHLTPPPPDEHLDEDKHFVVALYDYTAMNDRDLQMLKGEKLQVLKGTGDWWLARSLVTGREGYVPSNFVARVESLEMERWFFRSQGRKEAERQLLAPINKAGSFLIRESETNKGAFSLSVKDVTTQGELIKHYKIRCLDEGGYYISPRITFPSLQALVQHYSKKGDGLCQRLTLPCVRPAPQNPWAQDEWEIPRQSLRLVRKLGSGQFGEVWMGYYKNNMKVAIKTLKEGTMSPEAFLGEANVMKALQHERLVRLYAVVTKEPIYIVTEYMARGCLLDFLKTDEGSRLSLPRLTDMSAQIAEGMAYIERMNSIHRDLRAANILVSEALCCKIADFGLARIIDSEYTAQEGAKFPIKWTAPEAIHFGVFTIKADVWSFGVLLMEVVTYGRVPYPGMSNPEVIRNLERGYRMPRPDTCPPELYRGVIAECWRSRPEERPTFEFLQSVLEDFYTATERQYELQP
Sequence of kr108_human KRTAP10-8 (P60410 whole entry): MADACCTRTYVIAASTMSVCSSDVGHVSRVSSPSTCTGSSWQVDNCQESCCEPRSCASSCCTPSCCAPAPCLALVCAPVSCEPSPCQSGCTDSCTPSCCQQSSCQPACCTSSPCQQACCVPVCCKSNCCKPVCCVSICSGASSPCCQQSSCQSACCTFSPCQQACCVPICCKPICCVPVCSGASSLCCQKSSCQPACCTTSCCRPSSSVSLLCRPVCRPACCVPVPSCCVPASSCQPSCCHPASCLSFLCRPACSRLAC
Sequence of Apolipoprotein A-II (Homo sapiens), P02652 Q71R (P02652 whole entry Q71R): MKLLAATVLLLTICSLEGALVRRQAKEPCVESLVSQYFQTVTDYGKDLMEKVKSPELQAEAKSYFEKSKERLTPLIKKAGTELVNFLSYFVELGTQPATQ
Sequence of pex39_human PEX39 (Q5I0X4 whole entry): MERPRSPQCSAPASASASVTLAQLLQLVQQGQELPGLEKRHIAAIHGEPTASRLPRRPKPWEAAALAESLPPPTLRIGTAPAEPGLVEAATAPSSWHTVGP
Sequence of prr3_human PRR3 (P79522 whole entry): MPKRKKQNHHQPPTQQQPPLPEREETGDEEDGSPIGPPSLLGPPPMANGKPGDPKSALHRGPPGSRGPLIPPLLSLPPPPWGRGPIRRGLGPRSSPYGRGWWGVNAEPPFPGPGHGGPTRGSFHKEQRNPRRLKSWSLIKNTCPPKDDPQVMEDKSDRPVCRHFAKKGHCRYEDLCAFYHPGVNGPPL
Sequence of U2AF1 (Q01081 whole entry): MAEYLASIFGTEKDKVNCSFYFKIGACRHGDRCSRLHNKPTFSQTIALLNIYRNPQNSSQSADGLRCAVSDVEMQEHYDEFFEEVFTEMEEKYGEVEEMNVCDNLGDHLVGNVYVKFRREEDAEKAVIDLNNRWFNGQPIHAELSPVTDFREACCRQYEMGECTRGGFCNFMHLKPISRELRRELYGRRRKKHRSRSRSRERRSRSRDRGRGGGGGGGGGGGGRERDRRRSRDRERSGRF
Sequence of aagab_human AAGAB (Q6PD74 whole entry): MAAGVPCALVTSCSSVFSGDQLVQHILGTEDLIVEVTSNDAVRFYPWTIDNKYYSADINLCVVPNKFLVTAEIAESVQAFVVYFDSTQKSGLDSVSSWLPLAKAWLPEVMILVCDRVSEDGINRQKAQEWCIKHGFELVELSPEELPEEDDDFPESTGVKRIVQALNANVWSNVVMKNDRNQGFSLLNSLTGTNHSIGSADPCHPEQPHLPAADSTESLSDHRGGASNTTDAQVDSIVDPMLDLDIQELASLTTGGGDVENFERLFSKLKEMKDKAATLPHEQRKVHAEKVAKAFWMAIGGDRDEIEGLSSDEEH
Sequence of Cyclin-J-like protein (Homo sapiens), Q8IV13 W188R (Q8IV13 whole entry W188R): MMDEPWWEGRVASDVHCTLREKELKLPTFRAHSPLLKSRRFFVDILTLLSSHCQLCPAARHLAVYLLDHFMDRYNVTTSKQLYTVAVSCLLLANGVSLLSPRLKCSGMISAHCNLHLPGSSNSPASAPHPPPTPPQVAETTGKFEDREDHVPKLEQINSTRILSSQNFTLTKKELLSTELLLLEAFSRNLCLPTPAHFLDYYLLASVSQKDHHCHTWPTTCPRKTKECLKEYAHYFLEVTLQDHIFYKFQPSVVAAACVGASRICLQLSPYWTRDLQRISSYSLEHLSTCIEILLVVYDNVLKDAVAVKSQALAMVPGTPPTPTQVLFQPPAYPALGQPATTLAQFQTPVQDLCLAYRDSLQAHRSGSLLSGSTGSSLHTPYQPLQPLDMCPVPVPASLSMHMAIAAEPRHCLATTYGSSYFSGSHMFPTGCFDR
Sequence of hnrll_human HNRNPLL (Q8WVV9 whole entry): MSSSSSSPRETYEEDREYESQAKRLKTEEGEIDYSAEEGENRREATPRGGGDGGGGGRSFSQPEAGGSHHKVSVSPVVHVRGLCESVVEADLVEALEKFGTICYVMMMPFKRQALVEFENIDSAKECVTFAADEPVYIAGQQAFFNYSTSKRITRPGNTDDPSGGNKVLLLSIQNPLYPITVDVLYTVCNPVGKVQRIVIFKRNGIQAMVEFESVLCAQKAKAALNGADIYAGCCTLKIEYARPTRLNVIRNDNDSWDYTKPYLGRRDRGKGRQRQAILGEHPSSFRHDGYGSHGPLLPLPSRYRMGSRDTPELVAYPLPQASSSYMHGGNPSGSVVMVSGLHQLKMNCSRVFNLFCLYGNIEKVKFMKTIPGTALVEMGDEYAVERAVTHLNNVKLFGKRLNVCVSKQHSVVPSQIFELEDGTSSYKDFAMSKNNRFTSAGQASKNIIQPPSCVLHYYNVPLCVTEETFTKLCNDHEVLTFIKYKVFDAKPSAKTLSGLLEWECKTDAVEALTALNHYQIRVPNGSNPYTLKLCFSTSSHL
Sequence of aakb2_human PRKAB2 (O43741 whole entry): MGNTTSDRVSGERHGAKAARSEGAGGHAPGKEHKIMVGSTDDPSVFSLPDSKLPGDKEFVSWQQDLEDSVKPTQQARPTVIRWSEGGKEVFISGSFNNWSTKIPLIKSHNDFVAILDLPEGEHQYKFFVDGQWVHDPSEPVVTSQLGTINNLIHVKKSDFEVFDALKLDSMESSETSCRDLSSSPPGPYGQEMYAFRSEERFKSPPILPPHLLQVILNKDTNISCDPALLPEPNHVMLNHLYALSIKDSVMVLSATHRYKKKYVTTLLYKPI
Sequence of AP-2 complex subunit sigma (Homo sapiens), P53680 G64D (P53680 whole entry G64D, one chain of several): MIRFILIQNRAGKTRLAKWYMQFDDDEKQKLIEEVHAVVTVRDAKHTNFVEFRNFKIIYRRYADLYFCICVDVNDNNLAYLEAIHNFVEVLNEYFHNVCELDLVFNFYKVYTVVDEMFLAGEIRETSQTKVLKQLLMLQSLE

## Heterogeneous nuclear ribonucleoprotein K (Homo sapiens), P61978 R377H
cirbp_human CIRBP
  effect of a mutation on the interaction: with no effect
pex39_human PEX39
  effect of a mutation on the interaction: with no effect
rbm7_human RBM7
  effect of a mutation on the interaction: with no effect
rbm42_human RBM42
  effect of a mutation on the interaction: with no effect
tyk2_human TYK2
  effect of a mutation on the interaction: with no effect
grap2_human GRAP2
  effect of a mutation on the interaction: with no effect
hnrll_human HNRNPLL
  effect of a mutation on the interaction: with no effect
U2AF1
  effect of a mutation on the interaction: with no effect
prr3_human PRR3
  effect of a mutation on the interaction: with no effect
ytdc1_human YTHDC1
  effect of a mutation on the interaction: with no effect
qki_human QKI
  effect of a mutation on the interaction: with no effect
abi2_human ABI2
  effect of a mutation on the interaction: with no effect
ZNF385C
  effect of a mutation on the interaction: with no effect

## Solute carrier family 23 member 1 (Homo sapiens), Q9UHI7 L461M
kr108_human KRTAP10-8 [1]
  effect of a mutation on the interaction: with no effect

## Cyclin-J-like protein (Homo sapiens), Q8IV13 W188R
kr108_human KRTAP10-8 [2]
  effect of a mutation on the interaction: with no effect

## Calcium-binding protein 5 (Homo sapiens), Q9NP86 T59M
cep76_human CEP76
  effect of a mutation on the interaction: with no effect
itf2_human TCF4 [3]
  effect of a mutation on the interaction: with no effect
inca1_human INCA1 [4]
  effect of a mutation on the interaction: with no effect

## Dihydropyrimidinase-related protein 2 (Homo sapiens) (from UniProt Q16555) R496C
dpyl3_human DPYSL3
  effect of a mutation on the interaction: with no effect
gors2_human GORASP2
  effect of a mutation on the interaction: disrupting interaction strength
dpyl5_human DPYSL5
  effect of a mutation on the interaction: with no effect

## Zinc finger protein 559 (Homo sapiens), Q9BR84 K62I
kr101_human KRTAP10-1
  effect of a mutation on the interaction: with no effect
kr105_human KRTAP10-5
  effect of a mutation on the interaction: with no effect
mdfi_human MDFI
  effect of a mutation on the interaction: with no effect
kr103_human KRTAP10-3
  effect of a mutation on the interaction: with no effect

## AP-2 complex subunit sigma (Homo sapiens), P53680 G64D
aagab_human AAGAB
  effect of a mutation on the interaction: with no effect

## Tyrosine-protein kinase Blk (Homo sapiens), P51451 I338T
stat3_human STAT3
  effect of a mutation on the interaction: disrupting interaction strength
efs_human EFS
  effect of a mutation on the interaction: with no effect

## Krueppel-like factor 15 (Homo sapiens), Q9UIH9 G206R
aakb2_human PRKAB2
  effect of a mutation on the interaction: with no effect
zbt24_human ZBTB24
  effect of a mutation on the interaction: with no effect

## Dihydropyrimidinase-related protein 3 (Homo sapiens), Q14195 V25I
dpyl2_human DPYSL2
  effect of a mutation on the interaction: with no effect

## NEDD4-like E3 ubiquitin-protein ligase WWP2 (Homo sapiens), O00308 R178W
erep1_human ENTREP1
  effect of a mutation on the interaction: with no effect
hnrl1_human HNRNPUL1
  effect of a mutation on the interaction: with no effect
leg9b_human LGALS9B
  effect of a mutation on the interaction: with no effect
fxl18_human FBXL18
  effect of a mutation on the interaction: with no effect
pdli7_human PDLIM7
  effect of a mutation on the interaction: with no effect

## Actin, cytoplasmic 1 (Homo sapiens) (from UniProt P60709) R372C
ntaq1_human NTAQ1
  effect of a mutation on the interaction: with no effect
dest_human DSTN
  effect of a mutation on the interaction: with no effect

## Serine/threonine-protein kinase Nek6 (Homo sapiens), Q9HC98 R195C
neca2_human NECAB2
  effect of a mutation on the interaction: disrupting interaction strength
inca1_human INCA1 [5]
  effect of a mutation on the interaction: with no effect
taso2_human TASOR2
  effect of a mutation on the interaction: disrupting interaction strength
itf2_human TCF4 [6]
  effect of a mutation on the interaction: with no effect
ikzf3_human IKZF3
  effect of a mutation on the interaction: disrupting interaction strength
tri23_human TRIM23
  effect of a mutation on the interaction: disrupting interaction strength

## Apolipoprotein A-II (Homo sapiens), P02652 Q71R
ctsr1_human CATSPER1
  effect of a mutation on the interaction: with no effect
creb3_human CREB3
  effect of a mutation on the interaction: with no effect

## Zinc finger and SCAN domain-containing protein 30 (Homo sapiens), Q86W11 G186S
zn446_human ZNF446
  effect of a mutation on the interaction: with no effect
